Reference: PMC6345366 (Chemical communications (Cambridge, England), 2017)
Square brackets hold non-standard residues; d marks the D form. Ends that are not written are not given here.

T1: KDM4A tandem tudor domain (human)
T1 sequence (O75164 whole entry, looked up): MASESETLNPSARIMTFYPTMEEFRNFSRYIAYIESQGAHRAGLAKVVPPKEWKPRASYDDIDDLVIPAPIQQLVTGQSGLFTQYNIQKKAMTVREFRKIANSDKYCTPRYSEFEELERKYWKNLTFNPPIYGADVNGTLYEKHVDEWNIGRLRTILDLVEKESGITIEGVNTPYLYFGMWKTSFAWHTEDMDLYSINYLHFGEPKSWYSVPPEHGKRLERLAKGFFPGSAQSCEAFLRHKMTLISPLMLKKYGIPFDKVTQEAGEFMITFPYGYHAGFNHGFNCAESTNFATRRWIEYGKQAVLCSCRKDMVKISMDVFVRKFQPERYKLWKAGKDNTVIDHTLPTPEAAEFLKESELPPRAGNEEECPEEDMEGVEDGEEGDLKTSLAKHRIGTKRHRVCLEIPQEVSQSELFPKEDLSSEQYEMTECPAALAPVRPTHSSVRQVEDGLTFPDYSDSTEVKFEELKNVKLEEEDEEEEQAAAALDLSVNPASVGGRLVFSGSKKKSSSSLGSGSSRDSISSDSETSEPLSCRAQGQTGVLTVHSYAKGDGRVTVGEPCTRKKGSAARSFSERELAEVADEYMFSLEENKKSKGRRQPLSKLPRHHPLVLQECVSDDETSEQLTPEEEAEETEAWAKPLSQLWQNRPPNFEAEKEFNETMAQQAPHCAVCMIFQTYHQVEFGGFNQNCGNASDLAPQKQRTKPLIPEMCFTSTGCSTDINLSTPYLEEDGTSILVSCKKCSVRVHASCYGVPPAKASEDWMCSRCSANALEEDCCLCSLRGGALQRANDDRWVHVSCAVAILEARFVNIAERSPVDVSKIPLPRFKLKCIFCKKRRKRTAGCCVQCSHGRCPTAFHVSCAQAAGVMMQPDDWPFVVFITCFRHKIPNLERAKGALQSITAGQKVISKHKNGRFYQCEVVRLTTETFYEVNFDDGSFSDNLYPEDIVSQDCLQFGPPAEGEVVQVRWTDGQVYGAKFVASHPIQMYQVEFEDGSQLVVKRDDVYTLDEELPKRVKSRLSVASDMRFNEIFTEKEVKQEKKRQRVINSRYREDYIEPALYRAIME

T2: TAF3 PHD zinc finger
T2 sequence (Q5VWG9 whole entry, species assumed, looked up): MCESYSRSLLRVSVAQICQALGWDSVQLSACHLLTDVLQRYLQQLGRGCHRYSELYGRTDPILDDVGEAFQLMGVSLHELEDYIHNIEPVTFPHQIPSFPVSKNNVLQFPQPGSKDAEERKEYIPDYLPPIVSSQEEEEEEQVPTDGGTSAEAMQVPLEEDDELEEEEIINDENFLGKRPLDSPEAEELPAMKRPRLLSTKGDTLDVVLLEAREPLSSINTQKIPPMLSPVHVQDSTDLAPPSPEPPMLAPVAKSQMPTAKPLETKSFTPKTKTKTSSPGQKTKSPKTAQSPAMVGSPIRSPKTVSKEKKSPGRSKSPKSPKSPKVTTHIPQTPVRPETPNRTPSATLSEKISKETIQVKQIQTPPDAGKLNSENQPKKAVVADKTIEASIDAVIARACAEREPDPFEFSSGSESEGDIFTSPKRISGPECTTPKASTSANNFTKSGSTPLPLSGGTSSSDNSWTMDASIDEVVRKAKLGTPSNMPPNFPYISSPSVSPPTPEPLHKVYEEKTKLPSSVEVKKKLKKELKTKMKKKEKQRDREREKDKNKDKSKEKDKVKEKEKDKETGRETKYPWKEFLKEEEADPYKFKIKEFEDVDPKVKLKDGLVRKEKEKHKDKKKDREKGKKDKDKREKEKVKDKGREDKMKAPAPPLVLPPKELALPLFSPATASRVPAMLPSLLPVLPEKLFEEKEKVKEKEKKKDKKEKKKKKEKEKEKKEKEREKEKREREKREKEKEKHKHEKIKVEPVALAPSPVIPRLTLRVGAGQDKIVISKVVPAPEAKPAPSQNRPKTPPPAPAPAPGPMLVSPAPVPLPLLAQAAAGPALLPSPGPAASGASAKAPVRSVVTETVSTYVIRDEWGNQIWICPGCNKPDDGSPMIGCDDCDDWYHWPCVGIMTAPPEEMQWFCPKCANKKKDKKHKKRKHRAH

T3: KDM5A PHD3 (third PHD zinc finger of KDM5A) (UniProt P29375 1609-1659)
T3 sequence: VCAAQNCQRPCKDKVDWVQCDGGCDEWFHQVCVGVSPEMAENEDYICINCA


Key:
Assay in all cases: ITC
[1] = target: T1, KDM4A tandem tudor domain (human)
[2] = target: SGF29 tandem tudor domain
TAF3 PHD zinc finger = target: T2, TAF3 PHD zinc finger
[3] = target: T3, KDM5A PHD3 (third PHD zinc finger of …)

Chain of SGF29 tandem tudor domain (Q96ES7 whole entry, the tested form may be a part): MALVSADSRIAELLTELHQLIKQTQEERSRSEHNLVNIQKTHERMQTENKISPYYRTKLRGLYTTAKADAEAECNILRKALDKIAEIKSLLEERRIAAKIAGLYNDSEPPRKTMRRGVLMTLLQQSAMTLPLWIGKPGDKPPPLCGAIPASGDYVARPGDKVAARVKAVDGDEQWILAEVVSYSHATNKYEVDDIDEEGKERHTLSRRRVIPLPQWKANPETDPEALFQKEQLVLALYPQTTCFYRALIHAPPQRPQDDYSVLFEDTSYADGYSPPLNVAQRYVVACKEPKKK

Row | dH [1] [kcal/mol] | dH [2] [kcal/mol] | dH (TAF3 PHD zinc finger) [kcal/mol] | Kd [3] [nM] | dH [3] [kcal/mol] | Binder
1 | -13.1 | -7.7 | -10.1 | 110 | -11.1 | ARTK(Me3)QTARKS [10-mer histone peptide L-H3K4me3]
2 |  |  |  | 1200 | -7.8 | ART[dK](Me3)QTARKS [10-mer histone peptide D-H3K4me3]
